3 molecules from patent US20240010720A1 (IOMX THERAPEUTICS, published 2024) can be followed below.

In assay [1] the target is T1, IGSF11 ECD fused to murine-Fc (human; mouse, UniProt Q5DX21 23-241).
T1 construct: also called Fc-fusion IGSF11 ECD; full-length ECD of IGSF11; not shown: murine Fc
T1 sequence: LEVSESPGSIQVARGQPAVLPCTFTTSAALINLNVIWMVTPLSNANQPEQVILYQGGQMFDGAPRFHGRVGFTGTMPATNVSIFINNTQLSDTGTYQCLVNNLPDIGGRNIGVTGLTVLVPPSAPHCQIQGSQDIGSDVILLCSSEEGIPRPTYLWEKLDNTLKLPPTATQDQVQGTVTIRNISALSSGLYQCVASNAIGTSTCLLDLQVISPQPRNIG
The assay can be described thus: ELISA, IgG.

Assay [2] deals with T2, IgV domain of human IGSF11 fused to murine IgG2a Fc-region (human; mouse, UniProt Q5DX21 23-143).
T2 construct: also called IgV-like domain mFc fusion; not shown: murine IgG2a Fc-region
T2 sequence: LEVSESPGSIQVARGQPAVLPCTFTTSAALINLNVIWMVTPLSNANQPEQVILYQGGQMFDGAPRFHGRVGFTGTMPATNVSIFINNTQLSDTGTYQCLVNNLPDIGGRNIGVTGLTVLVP
Kind of assay: ELISA, IgG. A general note: In an ELISA, binding on a coated surface is turned into a signal by an enzyme label.

For assay [3], the target named is T3, His-tagged extracellular domain (ECD) of human IGSF11 (VSIG3) (human, UniProt Q5DX21 23-241).
T3 construct: partly bought (SinoBiological 13094-H08H); also called IGSF11-HIS; HIS-IGSF11; not shown: HIS6 tag
T3 sequence: T1 sequence
The assay can be described thus: blocking ELISA: IgG pre-incubated with His-tagged IGSF11 ECD, complexes added to immobilised VSIR-Fc; y axis % remaining IGSF11 binding, x axis IgG nM per legend.

In assay [4] the target is T4, human IGSF11 (VSIG3) on cells (human, UniProt Q5DX21 23-431).
T4 sequence: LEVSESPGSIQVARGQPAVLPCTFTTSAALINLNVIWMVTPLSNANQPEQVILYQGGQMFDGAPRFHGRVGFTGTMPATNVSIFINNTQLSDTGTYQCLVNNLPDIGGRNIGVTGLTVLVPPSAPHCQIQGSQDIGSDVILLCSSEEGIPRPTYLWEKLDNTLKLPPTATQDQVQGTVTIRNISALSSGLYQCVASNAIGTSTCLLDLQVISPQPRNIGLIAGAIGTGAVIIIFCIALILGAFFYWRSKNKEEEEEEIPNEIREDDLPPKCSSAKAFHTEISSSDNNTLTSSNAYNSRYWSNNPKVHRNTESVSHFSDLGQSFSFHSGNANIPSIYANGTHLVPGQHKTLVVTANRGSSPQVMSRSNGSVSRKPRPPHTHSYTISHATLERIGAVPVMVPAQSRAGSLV
Kind of assay: FACS, IgG1-format antibodies; CL-11 cells (C), a line that does not express IGSF11 (specificity control), IGSF11 siRNA (KD).

Assay [5] concerns the target T3, His-tagged extracellular domain (ECD) …. The assay can be described thus: ELISA EC50 grade, IgG1.
Assay [6] has as its target T5, recombinant human IGSF11 (VSIG3) extracellular domain (ECD) (human, UniProt Q5DX21 23-241, biotinylated where captured on streptavidin).
T5 construct: also called biotinylated recombinant ECD-IGSF11; IGSF11 (ECD domain)
T5 sequence: T1 sequence
Kind of assay: BLI, IgG1. (In BLI a coated tip is dipped into the sample, and binding shifts an interference pattern.)

The target in assay [7] is T5, recombinant human IGSF11 (VSIG3) …. The assay can be described thus: SPR, IgG1. (Surface plasmon resonance follows binding to a sensor surface in real time, without labels.)
In assay [8] the target is T1, IGSF11 ECD fused to murine-Fc. The assay can be described thus: ELISA, IgG. The source holds these as a separate data set.
The target is the same in assay [9]. The assay can be described thus: ELISA: IgG titrated on coated murine-Fc fusion of IGSF11 ECD; x axis IgG nM, y axis absorption per legend.
From the text: Expi293 cells (ThermoFisher) were transiently transfected with DNA sequences encoding the applicable IGSF11 domain-mFc fusions according to the manufacturer's instructions, and cultured under conditions suitable to the IGSF11 domain fusion. Cell supernatants were harvested 5 days post transfection and the expressed Fc-protein purified via Protein A affinity chromatography (GE Healthcare). IGSF11 domain Fc-fusion proteins were re-buffered into PBS pH7.4. […] The surface was blocked with 2% (w/v) skim milk powder in PBST. After three wash cycles with PBST, a dilution series of IgG-format ABPs was transferred to the immobilized the Fc-fusion IGSF11 ECD or the IGSF11 domains and incubated for 1 h. After removing all unbound antibodies by 3 wash cycles with PBST, bound IgG ABPs were detected with a goat anti-human IgG antibody conjugated with horseradish peroxidase. After three wash cycles with PBST the ELISA was developed with TMB substrate.
Assay [10] addresses T4, human IGSF11 (VSIG3) on cells. Kind of assay: FACS, IgG1-format antibodies; M579-A2-luc cells (M) treated with IGSF11 siRNA (KD).
Assay [11] concerns the target T3, His-tagged extracellular domain (ECD) …. Kind of assay: ELISA: IgG1-format antibody titrated on coated His-tagged IGSF11; x axis nM IgG, y axis absorbance per legend.
Assay [12] addresses T4, human IGSF11 (VSIG3) on cells. The assay can be described thus: FACS, DMS 273 cells.
Assay [13] shares this target. The assay can be described thus: FACS, HEK cells expressing IGSF11.
Assay [14] shares this target. The assay can be described thus: FACS, IgG1-format antibodies; CL-11 cells (C), a line that does not express IGSF11 (specificity control), scrambled control siRNA (SC).
The target is the same in assay [15]. The assay can be described thus: FACS, IgG1-format antibodies; DMS 273 cells (D) treated with scrambled control siRNA (SC).
Assay [16] has as its target T3, His-tagged extracellular domain (ECD) …. The assay can be described thus: blocking ELISA: antibody pre-incubated with His-tagged IGSF11 ECD, complexes added to immobilised VSIR-Fc; y axis % remaining IGSF11 binding to VSIR, x axis nM IgG per legend.
Assay [17] deals with T4, human IGSF11 (VSIG3) on cells. Kind of assay: FACS, IgG1-format antibodies; M579-A2-luc cells (M) treated with scrambled control siRNA (SC).
Assay [18] deals with T5, recombinant human IGSF11 (VSIG3) …. Kind of assay: BLI, apparent affinity, IgG captured, IGSF11 ECD 100 nM.
From the text: Briefly, various APBs were loaded on an optical biosensor via a commercially available Capture System (AHC sensors, ForteBio).
For assay [19], the target named is T4, human IGSF11 (VSIG3) on cells. The assay can be described thus: FACS, IgG1-format antibodies; DMS 273 cells (D) treated with IGSF11 siRNA (KD).
In assay [20] the target is T6, IgC2 domain of human IGSF11 fused to murine IgG2a Fc-region (human; mouse, UniProt Q5DX21 137-241).
T6 construct: also called IgC2-like domain mFc fusion; not shown: murine IgG2a Fc-region
T6 sequence: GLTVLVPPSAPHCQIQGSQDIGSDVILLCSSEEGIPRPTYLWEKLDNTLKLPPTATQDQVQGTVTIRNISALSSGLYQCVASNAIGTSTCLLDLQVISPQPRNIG
The assay can be described thus: ELISA, IgG.

Read-outs that look alike come from different tables or passages of the source.

B1: C-025 (IgG1 format) (antibody, V domains shown)
VH: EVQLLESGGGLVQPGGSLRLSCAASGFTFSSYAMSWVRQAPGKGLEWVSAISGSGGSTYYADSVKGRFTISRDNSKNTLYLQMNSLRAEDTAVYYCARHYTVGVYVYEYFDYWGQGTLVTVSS
VL: SYELTQPPSVSVSPGQTASITCSGDKLGDKYASWYQQKPGQSPVLVIYQDSKRPSGIPERFSGSNSGNTATLTISGTQAEDEADYYCQSYATAGFVFGGGTKLTVL
notes: wildtype human IgG1 and kappa or lambda constant regions
The EC50 is the concentration giving half of the maximal effect. Read a high EC50 as weaker potency. On to B1, for which the EC50 in assay [1] is 1 to 20 nM; in assay [2], < 1 nM.

B2: A-006 (IgG1 format) (antibody, V domains shown)
VH: EVQLVESGGGLIQPGGSLRLSCAASGFTVSSNYMSWVRQAPGKGLEWVSVIYSGGSTYYADSVKGRFTISRDNSKNTLYLQMNSLRAEDTAVYYCARGNPYYYGDLQVNFDYWGQGTLVTVSS
VL: QAVVTQEPSLTVSPGGTVTLTCASSTGAVTSGYYPNWFQQKPGQAPRPLIYSTSNKHSWTPARFSGSLLGGKAALTLSGVQPDDEAEYYCLLYYGGDWVFGGGTKLTVL
notes: human IgG1 format; also called A-006-like ABP
What is called EC50 (read off the curve) is the concentration that produces a half-maximal response. Lower therefore signals higher potency in that assay. On to B2, for which the “IC50 (read off the curve)” value in assay [3] and in assay [16] was ~4 nM throughout. Besides, the “percentage binding (FACS heat-map)” value in assay [4] was determined as 3.04%; in assay [10], 2.59%; in [14] it was 2.31%; in assay [15], 81.1%; in assay [17], 75.3%; in [19], 5.72%. Also, the EC50 is < 0.02 nM in assay [5], < 1 nM in assay [8], > 50 nM in [12] and 10 to 50 nM in assay [13]. The Kd in [6] was 1 to 10 nM; in assay [7], 250 to 500 nM; in assay [18], < 15 nM. Also, the “EC50 (read off the curve)” value was ~0.5 nM in [9] and ~0.01 nM in assay [11].

B3: A-026 (IgG1 format) (antibody, V domains shown)
VH: QVQLQESGPGLVKPSQTLSLTCTVSGGSISSGGYYWSWIRQHPGKGLEWIGYIYYSGSTYYNPSLKSRVTISVDTSKNQFSLKLSSVTAADTAVYYCASWSLGTSNHGWFDPWGQGTLVTVSS
VL: QSVLTQPPSASGTPGQRVTISCSGSSSNIGSNTVNWYQQLPGTAPKLLISDNNNRPSGVPDRFSGSKSGTSASLAITGLQAEDEADYYCQSYDSNLSGWVFGGGTKLTVL
notes: human IgG1 format
B3: the “percentage binding (FACS heat-map)” value came out at 3.47% in assay [4]; 2.01% in assay [10]; 3.6% in assay [14]; 64.4% in assay [15]; 11.6% in assay [17]; 3.81% in assay [19]. For the same molecule, the EC50 in [5] was 0.02 to 0.05 nM; in assay [8], 1 to 20 nM; in assay [20] it was 1 to 20 nM; in assay [13] it was > 50 nM. Also, the Kd is 20 to 30 nM in [6] and > 500 nM in [7].
